Results: article PMC3402150, “An endogenous factor enhances ferulic acid decarboxylation catalyzed by phenolic acid decarboxylase from Candida guilliermondii” (AMB Express, 2012)

Tested on: COc1cc(/C=C/C(=O)O)ccc1O
Test: purified protein
Conditions: control without ultrafiltrate activator, general assay 0.1 M sodium phosphate pH 6.0, 25°C

“CgPAD (phenolic acid decarboxylase) (Meyerozyma guilliermondii)” was tested, and the Km was 5.31 mM and the kcat was 89.7 s⁻¹.
